Results on six molecules are retold here after US20250262210A1 (TRUSTEES OF COLUMBIA UNIVERSITY IN THE CITY OF NEW YORK, published 2025).

For one assay, the target named is T1, LZTR1 R810W-FLAG (human, UniProt Q8N653 1-840).
T1 construct: Stably expressed in U87 cells by lentivirus; also called LZTR1-FLAG-R810W; LZTR1 RW; not shown: FLAG tag
T1 sequence (looked up): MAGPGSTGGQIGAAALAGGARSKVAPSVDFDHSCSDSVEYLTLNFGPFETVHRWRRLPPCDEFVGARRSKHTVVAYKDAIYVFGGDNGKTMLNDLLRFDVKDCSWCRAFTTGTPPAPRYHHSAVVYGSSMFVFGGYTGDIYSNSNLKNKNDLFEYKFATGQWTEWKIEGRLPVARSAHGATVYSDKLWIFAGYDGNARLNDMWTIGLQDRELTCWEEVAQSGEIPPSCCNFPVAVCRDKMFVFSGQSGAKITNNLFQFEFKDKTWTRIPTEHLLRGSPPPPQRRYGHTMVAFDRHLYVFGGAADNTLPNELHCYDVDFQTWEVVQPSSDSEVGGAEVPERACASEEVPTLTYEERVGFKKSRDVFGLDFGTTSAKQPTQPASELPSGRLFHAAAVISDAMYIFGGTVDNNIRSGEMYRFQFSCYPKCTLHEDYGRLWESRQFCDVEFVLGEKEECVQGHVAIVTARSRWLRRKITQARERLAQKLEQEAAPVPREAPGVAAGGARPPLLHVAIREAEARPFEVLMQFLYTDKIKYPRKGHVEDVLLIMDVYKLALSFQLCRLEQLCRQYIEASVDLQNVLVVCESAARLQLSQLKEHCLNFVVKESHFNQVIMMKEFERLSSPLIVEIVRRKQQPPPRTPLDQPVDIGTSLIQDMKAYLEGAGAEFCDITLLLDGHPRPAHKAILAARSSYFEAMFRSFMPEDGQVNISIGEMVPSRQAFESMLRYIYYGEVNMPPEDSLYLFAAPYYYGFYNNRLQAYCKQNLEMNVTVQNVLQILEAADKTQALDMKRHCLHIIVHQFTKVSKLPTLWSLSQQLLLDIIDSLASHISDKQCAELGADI
The assay can be described thus: IP/MS, LZTR1 R810W-FLAG, U87. In a few lines: (§1)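 Read-out: spectral counts from LC-MS/MS (Orbitrap Fusion) after MaxQuant identification. Variable modifications were Met oxidation, protein N-terminal acetylation and N/Q deamidation.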

The next assay deals with T2, LZTR1-FLAG (human, UniProt Q8N653 1-840).
T2 construct: Expressed in HEK 293T, HeLa or U87 cells; used as cell lysate; also called LZTR1 wild type-FLAG; LZTR1 WT; not shown: FLAG tag at the C-terminus
T2 sequence (looked up): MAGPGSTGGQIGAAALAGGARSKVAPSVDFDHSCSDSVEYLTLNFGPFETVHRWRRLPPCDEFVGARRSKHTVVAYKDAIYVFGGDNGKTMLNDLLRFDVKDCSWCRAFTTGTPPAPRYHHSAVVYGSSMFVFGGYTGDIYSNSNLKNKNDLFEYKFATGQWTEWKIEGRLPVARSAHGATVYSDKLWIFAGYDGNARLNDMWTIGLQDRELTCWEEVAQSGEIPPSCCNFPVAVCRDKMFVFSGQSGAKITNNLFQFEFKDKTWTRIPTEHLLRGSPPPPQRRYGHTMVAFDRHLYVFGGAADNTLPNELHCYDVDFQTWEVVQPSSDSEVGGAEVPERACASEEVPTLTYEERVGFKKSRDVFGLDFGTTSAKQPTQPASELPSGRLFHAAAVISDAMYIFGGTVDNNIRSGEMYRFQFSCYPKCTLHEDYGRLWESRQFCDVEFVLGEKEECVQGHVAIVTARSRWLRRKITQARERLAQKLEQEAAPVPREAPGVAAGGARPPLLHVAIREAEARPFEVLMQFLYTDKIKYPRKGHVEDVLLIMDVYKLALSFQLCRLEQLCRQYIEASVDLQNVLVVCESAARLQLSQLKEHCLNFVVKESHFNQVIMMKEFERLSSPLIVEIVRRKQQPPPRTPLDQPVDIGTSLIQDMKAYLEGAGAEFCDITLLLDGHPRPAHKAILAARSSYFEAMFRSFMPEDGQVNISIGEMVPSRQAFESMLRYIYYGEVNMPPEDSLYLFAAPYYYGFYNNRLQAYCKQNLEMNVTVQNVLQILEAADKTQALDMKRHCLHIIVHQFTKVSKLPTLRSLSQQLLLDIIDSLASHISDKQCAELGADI
Nature of the assay: IP/MS, LZTR1 wild type-FLAG, U87. The method in brief: as §1

B1: MCMBP (other, human, UniProt Q9BTE3 1-642, looked up)
chain: MPCGEDWLSHPLGIVQGFFAQNGVNPDWEKKVIEYFKEKLKENNAPKWVPSLNEVPLHYLKPNSFVKFRCMIQDMFDPEFYMGVYETVNQNTKAHVLHFGKYRDVAECGPQQELDLNSPRNTTLERQTFYCVPVPGESTWVKEAYVNANQARVSPSTSYTPSRHKRSYEDDDDMDLQPNKQKDQHAGARQAGSVGGLQWCGEPKRLETEASTGQQLNSLNLSSPFDLNFPLPGEKGPACLVKVYEDWDCFKVNDILELYGILSVDPVLSILNNDERDASALLDPMECTDTAEEQRVHSPPASLVPRIHVILAQKLQHINPLLPACLNKEESKTCKFVSSFMSELSPVRAELLGFLTHALLGDSLAAEYLILHLISTVYTRRDVLPLGKFTVNLSGCPRNSTFTEHLYRIIQHLVPASFRLQMTIENMNHLKFIPHKDYTANRLVSGLLQLPSNTSLVIDETLLEQGQLDTPGVHNVTALSNLITWQKVDYDFSYHQMEFPCNINVFITSEGRSLLPADCQIHLQPQLIPPNMEEYMNSLLSAVLPSVLNKFRIYLTLLRFLEYSISDEITKAVEDDFVEMRKNDPQSITADDLHQLLVVARCLSLSAGQTTLSRERWLRAKQLESLRRTRLQQQKCVNGNEL
Consider B1, for which the binding result with LZTR1 R810W-FLAG and in the assay with LZTR1-FLAG was “binds” each time.

B2: PNPLA2 (other, human, UniProt Q96AD5 1-504, looked up)
chain: MFPREKTWNISFAGCGFLGVYYVGVASCLREHAPFLVANATHIYGASAGALTATALVTGVCLGEAGAKFIEVSKEARKRFLGPLHPSFNLVKIIRSFLLKVLPADSHEHASGRLGISLTRVSDGENVIISHFNSKDELIQANVCSGFIPVYCGLIPPSLQGVRYVDGGISDNLPLYELKNTITVSPFSGESDICPQDSSTNIHELRVTNTSIQFNLRNLYRLSKALFPPEPLVLREMCKQGYRDGLRFLQRNGLLNRPNPLLALPPARPHGPEDKDQAVESAQAEDYSQLPGEDHILEHLPARLNEALLEACVEPTDLLTTLSNMLPVRLATAMMVPYTLPLESALSFTIRLLEWLPDVPEDIRWMKEQTGSICQYLVMRAKRKLGRHLPSRLPEQVELRRVQSLPSVPLSCAAYREALPGWMRNNLSLGDALAKWEECQRQLLLGLFCTNVAFPPEALRMRAPADPAPAPADPASPQHQLAGPAPLLSTPAPEARPVIGALGL
In the case of B2, the binding result with LZTR1 R810W-FLAG and in the assay with LZTR1-FLAG was “binds” in each case.

B3: MELK (other, human, UniProt Q14680 1-651, looked up)
chain: MKDYDELLKYYELHETIGTGGFAKVKLACHILTGEMVAIKIMDKNTLGSDLPRIKTEIEALKNLRHQHICQLYHVLETANKIFMVLEYCPGGELFDYIISQDRLSEEETRVVFRQIVSAVAYVHSQGYAHRDLKPENLLFDEYHKLKLIDFGLCAKPKGNKDYHLQTCCGSLAYAAPELIQGKSYLGSEADVWSMGILLYVLMCGFLPFDDDNVMALYKKIMRGKYDVPKWLSPSSILLLQQMLQVDPKKRISMKNLLNHPWIMQDYNYPVEWQSKNPFIHLDDDCVTELSVHHRNNRQTMEDLISLWQYDHLTATYLLLLAKKARGKPVRLRLSSFSCGQASATPFTDIKSNNWSLEDVTASDKNYVAGLIDYDWCEDDLSTGAATPRTSQFTKYWTESNGVESKSLTPALCRTPANKLKNKENVYTPKSAVKNEEYFMFPEPKTPVNKNQHKREILTTPNRYTTPSKARNQCLKETPIKIPVNSTGTDKLMTGVISPERRCRSVELDLNQAHMEETPKRKGAKVFGSLERGLDKVITVLTRSKRKGSARDGPRRLKLHYNVTTTRLVNPDQLLNEIMSILPKKHVDFVQKGYTLKCQTQSDFGKVTMQFELEVCQLQKPDVVGIRRQRLKGDAWVYKRLVEDILSSCKV
For the molecule B3, the binding result with LZTR1 R810W-FLAG and with LZTR1-FLAG was “binds” in each case.

B4: NDC80 (other, human, UniProt O14777 1-642, looked up)
chain: MKRSSVSSGGAGRLSMQELRSQDVNKQGLYTPQTKEKPTFGKLSINKPTSERKVSLFGKRTSGHGSRNSQLGIFSSSEKIKDPRPLNDKAFIQQCIRQLCEFLTENGYAHNVSMKSLQAPSVKDFLKIFTFLYGFLCPSYELPDTKFEEEVPRIFKDLGYPFALSKSSMYTVGAPHTWPHIVAALVWLIDCIKIHTAMKESSPLFDDGQPWGEETEDGIMHNKLFLDYTIKCYESFMSGADSFDEMNAELQSKLKDLFNVDAFKLESLEAKNRALNEQIARLEQEREKEPNRLESLRKLKASLQGDVQKYQAYMSNLESHSAILDQKLNGLNEEIARVELECETIKQENTRLQNIIDNQKYSVADIERINHERNELQQTINKLTKDLEAEQQKLWNEELKYARGKEAIETQLAEYHKLARKLKLIPKGAENSKGYDFEIKFNPEAGANCLVKYRAQVYVPLKELLNETEEEINKALNKKMGLEDTLEQLNAMITESKRSVRTLKEEVQKLDDLYQQKIKEAEEEDEKCASELESLEKHKHLLESTVNQGLSEAMNELDAVQREYQLVVQTTTEERRKVGNNLQRLLEMVATHVGSVEKHLEEQIAKVDREYEECMSEDLSENIKEIRDKYEKKATLIKSSEE
Regarding B4, the binding result in the assay with LZTR1 R810W-FLAG and with LZTR1-FLAG was “binds” throughout.

B5: NGLY1 (other, human, UniProt Q96IV0 2-654, looked up)
chain: AAAALGSSSGSASPAVAELCQNTPETFLEASKLLLTYADNILRNPNDEKYRSIRIGNTAFSTRLLPVRGAVECLFEMGFEEGETHLIFPKKASVEQLQKIRDLIAIERSSRLDGSNKSHKVKSSQQPAASTQLPTTPSSNPSGLNQHTRNRQGQSSDPPSASTVAADSAILEVLQSNIQHVLVYENPALQEKALACIPVQELKRKSQEKLSRARKLDKGINISDEDFLLLELLHWFKEEFFHWVNNVLCSKCGGQTRSRDRSLLPSDDELKWGAKEVEDHYCDACQFSNRFPRYNNPEKLLETRCGRCGEWANCFTLCCRAVGFEARYVWDYTDHVWTEVYSPSQQRWLHCDACEDVCDKPLLYEIGWGKKLSYVIAFSKDEVVDVTWRYSCKHEEVIARRTKVKEALLRDTINGLNKQRQLFLSENRRKELLQRIIVELVEFISPKTPKPGELGGRISGSVAWRVARGEMGLQRKETLFIPCENEKISKQLHLCYNIVKDRYVRVSNNNQTISGWENGVWKMESIFRKVETDWHMVYLARKEGSSFAYISWKFECGSVGLKVDSISIRTSSQTFQTGTVEWKLRSDTAQVELTGDNSLHSYADFSGATEVILEAELSRGDGDVAWQHTQLFRQSLNDHEENCLEIIIKFSDL
Consider B5, for which the binding result with LZTR1 R810W-FLAG and with LZTR1-FLAG was “binds” throughout.

B6: PAFAH1B1 (other, human, UniProt P43034 1-410, looked up)
chain: MVLSQRQRDELNRAIADYLRSNGYEEAYSVFKKEAELDVNEELDKKYAGLLEKKWTSVIRLQKKVMELESKLNEAKEEFTSGGPLGQKRDPKEWIPRPPEKYALSGHRSPVTRVIFHPVFSVMVSASEDATIKVWDYETGDFERTLKGHTDSVQDISFDHSGKLLASCSADMTIKLWDFQGFECIRTMHGHDHNVSSVAIMPNGDHIVSASRDKTIKMWEVQTGYCVKTFTGHREWVRMVRPNQDGTLIASCSNDQTVRVWVVATKECKAELREHEHVVECISWAPESSYSSISEATGSETKKSGKPGPFLLSGSRDKTIKMWDVSTGMCLMTLVGHDNWVRGVLFHSGGKFILSCADDKTLRVWDYKNKRCMKTLNAHEHFVTSLDFHKTAPYVVTGSVDQTVKVWECR
On to B6, for which the binding result with LZTR1 R810W-FLAG and with LZTR1-FLAG was “binds” throughout.
